For test [1], the target named is HLA-B*15:03. Put plainly: IEDB peptide-MHC binding, purified MHC/competitive/radioactivity; filed as Kd, often an IC50 or EC50 that approximates it; ≥ and ≤ were set here for values at or beyond the usual limits of such assays. Particulars: source organism: Vaccinia virus WR.
Test [2] has as its target HLA-A*02:01. As to the kind of experiment: IEDB peptide-MHC binding, purified MHC/competitive/fluorescence; ≥ and ≤ were set here for values at or beyond the usual limits of such assays.
The target of test [3] is HLA-A*03:01. The description is as above.
For test [4], the target named is HLA-A*11:01. Described as above.
The target of test [5] is HLA-A*03:01. As to the kind of experiment: IEDB peptide-MHC binding, purified MHC/direct/fluorescence; filed as Kd, often an IC50 or EC50 that approximates it; ≥ and ≤ were set here for values at or beyond the usual limits of such assays.
Test [6] concerns the target HLA-A*31:01. Put plainly: IEDB peptide-MHC binding, purified MHC/competitive/fluorescence; filed as Kd, often an IC50 or EC50 that approximates it; ≥ and ≤ were set here for values at or beyond the usual limits of such assays.
Test [7] concerns the target HLA-A*01:01. As to the kind of experiment: IEDB peptide-MHC binding, purified MHC/direct/fluorescence; filed as Kd, often an IC50 or EC50 that approximates it; ≥ and ≤ were set here for values at or beyond the usual limits of such assays. Particulars: source organism: Escherichia coli O157:H7.
The target in test [8] is HLA-A*02:01. The test is described as above. Particulars: source organism: Escherichia coli O157:H7.
Test [9] addresses HLA-A*11:01. The test is described as above. Particulars: source organism: Escherichia coli O157:H7.
Test [10] has as its target HLA-A*31:01. Described as above. The note with it: source organism: Escherichia coli O157:H7.
For test [11], the target named is HLA-A*68:02. The description is as above. The note with it: source organism: Escherichia coli O157:H7.
The target of test [12] is HLA-A*69:01. The test is described as above. Particulars: source organism: Escherichia coli O157:H7.
The target of test [13] is HLA-B*07:02. The description is as above. Particulars: source organism: Escherichia coli O157:H7.
The target in test [14] is HLA-B*15:17. The test is described as above. Particulars: source organism: Escherichia coli O157:H7.
Test [15] concerns the target HLA-B*18:01. The description is as above. The note with it: source organism: Escherichia coli O157:H7.
The target in test [16] is HLA-B*27:05. The description is as above. Particulars: source organism: Escherichia coli O157:H7.
Test [17] addresses HLA-B*40:01. Described as above. Particulars: source organism: Escherichia coli O157:H7.
The target of test [18] is HLA-B*48:01. The test is described as above. The note with it: source organism: Escherichia coli O157:H7.
Test [19] has as its target HLA-B*57:01. Described as above. The note with it: source organism: Escherichia coli O157:H7.
Test [20] deals with HLA-B*58:01. The test is described as above. The note with it: source organism: Escherichia coli O157:H7.
Test [21] has as its target HLA-A*24:02. Put plainly: IEDB peptide-MHC binding, purified MHC/competitive/fluorescence; ≥ and ≤ were set here for values at or beyond the usual limits of such assays. Particulars: source organism: Zaire ebolavirus.
The target of test [22] is HLA-A*03:01. As to the kind of experiment: IEDB peptide-MHC binding, purified MHC/competitive/fluorescence; filed as Kd, often an IC50 or EC50 that approximates it; ≥ and ≤ were set here for values at or beyond the usual limits of such assays.
Test [23] concerns the target HLA-B*15:01. Put plainly: IEDB peptide-MHC binding, purified MHC/direct/fluorescence; filed as Kd, often an IC50 or EC50 that approximates it; ≥ and ≤ were set here for values at or beyond the usual limits of such assays. Particulars: source organism: Escherichia coli O157:H7.
Test [24] addresses HLA-B*44:02. The description is as above. The note with it: source organism: Escherichia coli O157:H7.
Setting [25] is: source organism: Sudan ebolavirus.
Setting [26] is: source organism: Zaire ebolavirus.
[27] abbreviates: source organism: Vaccinia virus WR.

In the Immune Epitope Database (IEDB) one finds Kd and IC50 data, which are given here for 14 sequences.

Turning to RQSSCKMAL, the equilibrium dissociation constant (Kd) in test [1] was determined as 0.0188 µM.

For SLLQLPRDK, the IC50 in [2] (setting [25]) came out at 16.5 µM; in test [3] (setting [25]) it was 3.84 µM; in [4] (setting [25]), 5.08 µM.

On to MVLASTTAK, for which the Kd came out at 0.0159 µM in [5] (source organism: Influenza A virus (A/turkey/MN/735/79(H6N2))) and 0.0461 µM in test [6] (source organism: Influenza A virus (A/swine/Hannover/1/1981(H1N1))).

Regarding EEDAAVDDL, the Kd in [7], in test [8], in [9], in test [10], in [11] and in [12] was at least 20 µM in each case. In addition, the Kd in test [13] is at least 20 µM; in test [14], at least 20 µM; in test [15], at least 20 µM; in [16], at least 20 µM; in test [17] it was 1.45 µM; in test [18], at least 20 µM. Moreover, the equilibrium dissociation constant (Kd) in test [19] and in [20] was at least 20 µM in each case.

Take QRVIPVYQV: the half-maximal inhibitory concentration (IC50) in [2] (setting [26]) is at least 113 µM; in [3] (setting [26]), at least 93.5 µM; in test [4] (setting [26]) it was 16.2 µM.

For TCKAFGLYK, the 50% inhibitory concentration (IC50) in test [3] (setting [27]) came out at 6.41 µM; in test [4] (setting [27]) it was 1.14 µM.

RLNWLTHLK: the dissociation constant Kd in [5] (source organism: Influenza A virus (A/Nagasaki/N03/2005(H3N2))) amounted to 0.264 µM; in [6] (source organism: Influenza A virus (A/CHU/2-524/2005(H3N2))) it was 0.0025 µM.

Consider DYHKILTAG, for which the 50% inhibitory concentration (IC50) in test [3] (setting [26]) is at least 164 µM; in test [4] (setting [26]) it was 58.5 µM; in test [21] it was 39.9 µM.

Turning to SVFESWLEK, the Kd in test [22] (source organism: Escherichia coli E22) amounted to 0.211 µM.

KSVEDVSAF: in [1], the Kd came to 0.0136 µM.

As for AKSKFPRSM, the Kd in [1] came out at 0.000261 µM.

On to SQVSSTELF, for which the Kd in test [1] was 0.00183 µM.

Consider LMMTATGEY, for which the dissociation constant Kd in test [22] (source organism: Escherichia coli B7A) was determined as 1.78 µM.

On to YECTSRHFT, for which the Kd in [7], in [8], in test [5] (source organism: Escherichia coli O157:H7), in test [9], in test [10] and in test [11] was at least 20 µM each time. Moreover, the dissociation constant Kd in [12] was at least 20 µM; in test [13] it was at least 20 µM; in [23] it was at least 20 µM; in [14], at least 20 µM; in [15], 0.318 µM; in [16], at least 20 µM. For the same sequence, the equilibrium dissociation constant (Kd) in [17] was 2.27 µM; in test [24] it was at least 20 µM; in test [18] it was at least 20 µM; in test [19] it was at least 20 µM; in test [20], at least 20 µM.

As a reminder, the Kd is the free concentration of one partner at which half of the binding sites on the other are occupied at equilibrium, for simple one-to-one binding. Broadly, the IC50 is the point on the concentration scale where inhibition reaches its midpoint. Read a low IC50 as inhibition by little substance.
